Laboratory results from paper PMC9504171, “Revealing a New Family of D-2-Hydroxyglutarate Dehydrogenases in Escherichia coli and Pantoea ananatis Encoded by ydiJ” (Microorganisms, 2022).

Columns and labels:
[1] = substrate: O=C(O)CC[C@@H](O)C(=O)O; assay: purified protein; assay type: biochemical, Pantoea ananatis; conditions: 200 μM phenazine ethosulfate, 100 μM DCIP, 50 mM Tris-HCl pH 7.5, 25 °C
[2] = substrate: O=C(O)CC[C@@H](O)C(=O)O; assay: purified protein; assay type: biochemical, Escherichia coli; conditions: 200 μM phenazine ethosulfate, 100 μM DCIP, 50 mM Tris-HCl pH 8.0, 25 °C

B1: D2HGDHPa (YdiJ, P. ananatis) (Pantoea ananatis AJ13355) (protein)
chain: MIPQISQAPGLIQRVLTFLETLKAQGFTGDTATSYADRLSLSTDNSIYQLLPDAVLFPRSTADVALIARLAGEAAFSSLVFTPRGGGTGTNGQSLNQGIIVDMSRHMNRILEINTEQRWVRVEAGVVKDQLNAYLKPFGFFFSPELSTSNRATLGGMINTDASGQGSLVYGKTSDHVLGLRAVLLGGDILDTRPVPTALAENLAQTPTPEGRIYQQVLTRCREHRELILEKFPKLNRFLTGYDLRHVFSDDMQTFDLTRLLCGAEGTLAFISEARLDITPLPKVRRVVNIKYDAFDSALRNAPLMVEAQALSVETVDSKVLNLAREDIVWHSVRELITAIPDKEMLGLNIVEFAGDDAGQIDRQITQLCARLDTLMTQQQGGVIGYQLCDDLDGIERIYNMRKKAVGLLGNAKGRAKPIPFVEDTAVPPEHLADYIVEFRALLDSHGLSYGMFGHVDAGVLHVRPALDMCDPHQEMMMKQISDEVVALTARYGGLLWGEHGKGFRAQYSPAFFGETLFNELRRIKAAFDPHNRLNPGKICTPFDSEAAMMQVDATKRGSYDRQIPLQVRETWRGALECNGNGLCFNFDARSPMCPSMKITRNRIHSPKGRATLTREWLRLLAEQGADPVMLEKKLPESSLSLRALISRMRNTWYANKGEYDFSHEVKEAMSGCLACKACSTQCPIKIDVPAFRSRFLQLYHTRYLRPLSDHLVAGVESYAPLMAKAPGVFNFFLKQPWATSFSKTHIGMVDLPLLSSPTLKQQLSGHPAMNMTLEQLEALSETQRAQKVLVVQDPFTSFYEAKLVHDFIRLIEKLGYQPVLLPFSPNGKAQHVKGFLQRFARTASKTADFLNRVAKLGMPMVGIDPATVLCYRDEYHQMLGEARGDFNVLLVHEWLHQALQEREVQVTSGEAWYLFAHCTEVTALPGTPGQWQAIFSRFGAKLENINVGCCGMAGTYGHESQNLENSLGIYALSWHPQLQKLPRQRCLATGFSCRSQVKRVEGNGMRHPLQALLELI
notes: 1018 residues; calculated 113,453 Da; homotetramer ~440 kDa
B1 gave a Km [1] of 208 ± 10 µM, a kcat [1] of 9.7 s⁻¹ and a kcat/Km [1] of 50000 M⁻¹ s⁻¹.

B2: D2HGDHEc (YdiJ, E. coli) (Escherichia coli K-12) (protein)
chain: MIPQISQAPGVVQLVLNFLQELEQQGFTGDTATSYADRLTMSTDNSIYQLLPDAVVFPRSTADVALIARLAAQERYSSLIFTPRGGGTGTNGQALNQGIIVDMSRHMNRIIEINPEEGWVRVEAGVIKDQLNQYLKPFGYFFAPELSTSNRATLGGMINTDASGQGSLVYGKTSDHVLGVRAVLLGGDILDTQPLPVELAETLGKSNTTIGRIYNTVYQRCRQQRQLIIDNFPKLNRFLTGYDLRHVFNDEMTEFDLTRILTGSEGTLAFITEARLDITRLPKVRRLVNVKYDSFDSALRNAPFMVEARALSVETVDSKVLNLAREDIVWHSVSELITDVPDQEMLGLNIVEFAGDDEALIDERVNALCARLDELIASHQAGVIGWQVCRELAGVERIYAMRKKAVGLLGNAKGAAKPIPFAEDTCVPPEHLADYIAEFRALLDSHGLSYGMFGHVDAGVLHVRPALDMCDPQQEILMKQISDDVVALTAKYGGLLWGEHGKGFRAEYSPAFFGEELFAELRKVKAAFDPHNRLNPGKICPPEGLDAPMMKVDAVKRGTFDRQIPIAVRQQWRGAMECNGNGLCFNFDARSPMCPSMKITQNRIHSPKGRATLVREWLRLLADRGVDPLKLEQELPESGVSLRTLIARTRNSWHANKGEYDFSHEVKEAMSGCLACKACSTQCPIKIDVPEFRSRFLQLYHTRYLRPLRDHLVATVESYAPLMARAPKTFNFFINQPLVRKLSEKHIGMVDLPLLSVPSLQQQMVGHRSANMTLEQLESLNAEQKARTVLVVQDPFTSYYDAQVVADFVRLVEKLGFQPVLLPFSPNGKAQHIKGFLNRFAKTAKKTADFLNRMAKLGMPMVGVDPALVLCYRDEYKLALGEERGEFNVLLANEWLASALESQPVATVSGESWYFFGHCTEVTALPGAPAQWAAIFARFGAKLENVSVGCCGMAGTYGHEAKNHENSLGIYELSWHQAMQRLPRNRCLATGYSCRSQVKRVEGTGVRHPVQALLEIIK
notes: 1018 residues; calculated 113,248 Da; homotetramer ~440 kDa
B2 was tested, and the Km [2] was 83 ± 5 µM, the kcat [2] was 13.9 s⁻¹ and the kcat/Km [2] was 170000 M⁻¹ s⁻¹.
